Data: US20190361034A1
Blank lines part the entries; values can stand above or below the substance they belong to.

Assays:
[1] = target: MHC class II molecules on MHC class II-expressing Raji cells (human); test: direct ELISA, plate-immobilised Raji cells; 5% BSA, 2,500 cells; 500 ng/ml
[2] = target: MHC class II molecules on MHC class II-expressing Raji cells (human); test: transfer cell ELISA, Raji cells; 15.63 ng/ml; plate row D
[3] = target: MHC class II molecules on MHC class II-expressing Raji cells (human); test: direct ELISA, plate-immobilised Raji cells; 10% FBS, 5,000 cells; 250 ng/ml
[4] = target: MHC class II molecules on MHC class II-expressing Raji cells (human); test: direct ELISA, plate-immobilised Raji cells; 5% BSA, 5,000 cells; 62.5 ng/ml
[5] = target: MHC class II molecules on MHC class II-expressing Raji cells (human); test: direct ELISA, plate-immobilised Raji cells; 10% FBS, 2,500 cells; 1000 ng/ml
[6] = target: MHC class II molecules on MHC class II-expressing Raji cells (human); test: direct ELISA, plate-immobilised Raji cells; 5% BSA, 10,000 cells; 250 ng/ml
[7] = target: MHC class II molecules on MHC class II-expressing Raji cells (human); test: transfer cell ELISA, Raji cells; 15.63 ng/ml; plate row C
[8] = target: MHC class II molecules on MHC class II-expressing Raji cells (human); test: direct ELISA, plate-immobilised Raji cells; 10% FBS, 5,000 cells; 31.25 ng/ml
[9] = target: MHC class II molecules on MHC class II-expressing Raji cells (human); test: direct ELISA, plate-immobilised Raji cells; 10% FBS, 2,500 cells; 15.625 ng/ml
[10] = target: MHC class II molecules on MHC class II-expressing Raji cells (human); test: transfer cell ELISA, Raji cells; 3.906 ng/ml; plate row D
[11] = target: MHC class II molecules on MHC class II-expressing Raji cells (human); test: direct ELISA, plate-immobilised Raji cells; 10% FBS, 10,000 cells; 250 ng/ml
[12] = target: MHC class II molecules on MHC class II-expressing Raji cells (human); test: direct ELISA, plate-immobilised Raji cells; 10% FBS, 5,000 cells; 1000 ng/ml
[13] = target: MHC class II molecules on MHC class II-expressing Raji cells (human); test: direct ELISA, plate-immobilised Raji cells; 5% BSA, 2,500 cells; 250 ng/ml
[14] = target: MHC class II molecules on MHC class II-expressing Raji cells (human); test: transfer cell ELISA, Raji cells; 0.977 ng/ml; plate row D
[15] = target: MHC class II molecules on MHC class II-expressing Raji cells (human); test: BLI; immobilised sample, Raji cells in solution; dark control of FIG. 24
[16] = target: MHC class II molecules on MHC class II-expressing Raji cells (human); test: direct ELISA, plate-immobilised Raji cells; 3% gelatin, 10,000 cells; 31.25 ng/ml
[17] = target: MHC class II molecules on MHC class II-expressing Raji cells (human); test: direct ELISA, plate-immobilised Raji cells; 3% gelatin, 2,500 cells; 15.625 ng/ml
[18] = target: MHC class II molecules on MHC class II-expressing Raji cells (human); test: direct ELISA, plate-immobilised Raji cells; 3% gelatin, 5,000 cells; 15.625 ng/ml
[19] = target: MHC class II molecules on MHC class II-expressing Raji cells (human); test: direct ELISA, plate-immobilised Raji cells; 0.5% Casein, 5,000 cells; 500 ng/ml
[20] = target: MHC class II molecules on MHC class II-expressing Raji cells (human); test: BLI; IMP321 sample at 150% binding potency, Raji cells in solution; relative to reference standard
[21] = target: MHC class II molecules on MHC class II-expressing Raji cells (human); test: BLI; IMP321 sample diluted from reference standard to 75% binding potency, Raji cells in solution; relative to reference standard
[22] = target: MHC class II molecules on MHC class II-expressing Raji cells (human); test: direct ELISA, plate-immobilised Raji cells; 0.5% Casein, 2,500 cells; 31.25 ng/ml
[23] = target: MHC class II molecules on MHC class II-expressing Raji cells (human); test: direct ELISA, plate-immobilised Raji cells; 3% gelatin, 10,000 cells; 125 ng/ml
[24] = target: MHC class II molecules on MHC class II-expressing Raji cells (human); test: direct ELISA, plate-immobilised Raji cells; 3% gelatin, 10,000 cells; 500 ng/ml
[25] = target: MHC class II molecules on MHC class II-expressing Raji cells (human); test: direct ELISA, plate-immobilised Raji cells; 3% gelatin, 5,000 cells; 1000 ng/ml
[26] = target: MHC class II molecules on MHC class II-expressing Raji cells (human); test: direct ELISA, plate-immobilised Raji cells; 3% gelatin, 10,000 cells; 15.625 ng/ml
[27] = target: MHC class II molecules on MHC class II-expressing Raji cells (human); test: direct ELISA, plate-immobilised Raji cells; 3% gelatin, 10,000 cells; 62.5 ng/ml
[28] = target: MHC class II molecules on MHC class II-expressing Raji cells (human); test: direct ELISA, plate-immobilised Raji cells; 3% gelatin, 2,500 cells; 500 ng/ml
[29] = target: MHC class II molecules on MHC class II-expressing Raji cells (human); test: direct ELISA, plate-immobilised Raji cells; 0.5% Casein, 2,500 cells; 62.5 ng/ml
[30] = target: MHC class II molecules on MHC class II-expressing Raji cells (human); test: direct ELISA, plate-immobilised Raji cells; 0.5% Casein, 10,000 cells; 1000 ng/ml
[31] = target: MHC class II molecules on MHC class II-expressing Raji cells (human); test: transfer cell ELISA, Raji cells; 31.25 ng/ml
[32] = target: MHC class II molecules on MHC class II-expressing Raji cells (human); test: BLI; IMP321 sample at 100% binding potency, Raji cells in solution; relative to reference standard
[33] = target: MHC class II molecules on MHC class II-expressing Raji cells (human); test: direct ELISA, plate-immobilised Raji cells; 0.5% Casein, 5,000 cells; 1000 ng/ml

- OD (ELISA signal) [1]: 1.32 OD
- OD (ELISA signal) [2]: 0.029 OD
- OD (ELISA signal) [3]: 0.939 OD
- OD (ELISA signal) [4]: 0.303 OD
- OD (ELISA signal) [5]: 2.39 OD
- OD (ELISA signal) [6]: 0.91 OD
- OD (ELISA signal) [7]: 0.035 OD
- OD (ELISA signal) [8]: 0.304 OD
- OD (ELISA signal) [9]: 0.27 OD
- OD (ELISA signal) [10]: 0.012 OD
- OD (ELISA signal) [11]: 0.762 OD
- OD (ELISA signal) [12]: 2.25 OD
- OD (ELISA signal) [13]: 0.893 OD
- OD (ELISA signal) [14]: 0.01 OD
Substance: IMP321 treated with Peptide-N-Glycosidase F (PNGase F) (Fc fusion)

- Bioactivity (binding) [15]: 100%
- OD (ELISA signal) [16]: 0.389 OD
- OD (ELISA signal) [17]: 0.295 OD
- OD (ELISA signal) [18]: 0.316 OD
- OD (ELISA signal) [19]: 0.206 OD
- Potency determined by BLI assay [20]: 150%
- Potency determined by BLI assay [21]: 80%
- OD (ELISA signal) [22]: 0.149 OD
- OD (ELISA signal) [23]: 0.688 OD
- OD (ELISA signal) [24]: 1.55 OD
- OD (ELISA signal) [25]: 2.31 OD
- OD (ELISA signal) [26]: 0.361 OD
- OD (ELISA signal) [27]: 0.417 OD
- OD (ELISA signal) [28]: 2.56 OD
- OD (ELISA signal) [29]: 0.135 OD
- OD (ELISA signal) [30]: 0.16 OD
- OD (ELISA signal) [31]: 0.159 OD
- Potency determined by BLI assay [32]: 98%
- OD (ELISA signal) [33]: 0.136 OD
Substance: IMP321, recombinant soluble human LAG-3Ig fusion protein (Fc fusion)
